B1: IL-10Rβ, full-length subunit of the interleukin 10 receptor (receptor, UniProt Q61190 20-349, looked up)
chain: MIPPPEKVRMNSVNFKNILQWEVPAFPKTNLTFTAQYESYRSFQDHCKRTASTQCDFSHLSKYGDYTVRVRAELADEHSEWVNVTFCPVEDTIIGPPEMQIESLAESLHLRFSAPQIENEPETWTLKNIYDSWAYRVQYWKNGTNEKFQVVSPYDSEVLRNLEPWTTYCIQVQGFLLDQNRTGEWSEPICERTGNDEITPSWIVAIILIVSVLVVFLFLLGCFVVLWLIYKKTKHTFRSGTSLPQHLKEFLGHPHHSTFLLFSFPPPEEAEVFDKLSIISEESEGSKQSPEDNCASEPPSDPGPRELESKDEAPSPPHDDPKLLTSTSEV
notes: Interleukin 10 receptor subunit beta, full length; One tag per copy: Rluc fusion as donor, eYFP fusion as acceptor; also called IL-10Rβ_FL; full-length IL-10Rβ; source: HEK293, transfected, in living cells
B2: IL-10Rα, full-length subunit of the interleukin 10 receptor (receptor, UniProt Q61727 17-575, looked up)
chain: LEFIAYGTELPSPSYVWFEARFFQHILHWKPIPNQSESTYYEVALKQYGNSTWNDIHICRKAQALSCDLTTFTLDLYHRSYGYRARVRAVDNSQYSNWTTTETRFTVDEVILTVDSVTLKAMDGIIYGTIHPPRPTITPAGDEYEQVFKDLRVYKISIRKFSELKNATKRVKQETFTLTVPIGVRKFCVKVLPRLESRINKAEWSEEQCLLITTEQYFTVTNLSILVISMLLFCGILVCLVLQWYIRHPGKLPTVLVFKKPHDFFPANPLCPETPDAIHIVDLEVFPKVSLELRDSVLHGSTDSGFGSGKPSLQTEESQFLLPGSHPQIQGTLGKEESPGLQATCGDNTDSGICLQEPGLHSSMGPAWKQQLGYTHQDQDDSDVNLVQNSPGQPKYTQDASALGHVCLLEPKAPEEKDQVMVTFQGYQKQTRWKAEAAGPAECLDEEIPLTDAFDPELGVHLQDDLAWPPPALAAGYLKQESQGMASAPPGTPSRQWNQLTEEWSLLGVVSCEDLSIESWRFAHKLDPLDCGAAPGGLLDSLGSNLVTLPLISSLQVEE
notes: Interleukin 10 receptor subunit alpha, full length; One tag per copy: Rluc fusion as donor, eYFP fusion as acceptor (plasmids pRL-CMV and pEYFP-N1); also called IL-10Rα_FL; full-length IL-10Rα; source: HEK293, transfected, in living cells

Experiments:
TM sequence of IL-10Rα = experiment: FRET or BRET; BRET saturation assay in living HEK293 cells; TM sequence fused to Rluc (plasmid constant, 0.75 ng/mL) with increasing eYFP-fused TM sequence plasmid, wild type or mutant; HBSS, coelenterazine H 5 µM, 37 °C
TM sequence of IL-10Rβ = experiment: as above
[1] = molecular target: IL-10Rβ, full-length subunit of the interleukin 10 receptor (UniProt Q61190); experiment: FRET or BRET; BRET saturation assay in living HEK293 cells; full-length Rluc-tagged receptor (plasmid constant, 0.75 ng/mL) with increasing eYFP-tagged TM sequence plasmid; HBSS, coelenterazine H 5 µM, 37 °C
[2] = molecular target: IL-10Rα, full-length subunit of the interleukin 10 receptor (UniProt Q61727); experiment: as above
[3] = molecular target: the molecule itself; experiment: FRET or BRET; BRET saturation assay in living HEK293 cells; full-length Rluc donor (plasmid constant, 0.75 ng/mL) with increasing full-length eYFP acceptor plasmid; HBSS, coelenterazine H 5 µM, 37 °C
[4] = molecular target: B2; experiment: as above; conditions: partners not purified
[5] = molecular target: B1; experiment: as above; conditions: partners not purified

Molecule	BRET50 (TM sequence of IL-10Rα)	BRET50 (TM sequence of IL-10Rβ)	BRET50 [1]	BRET50 [2]	BRET50 [3]	further results
TM sequence of IL-10Rα (domain or fragment)	190 mBu	109 mBu	22 mBu	28 mBu		
TM sequence of IL-10Rα with leucine 248 substituted by glycine (domain or fragment)						decrease of BRET50 against the wild-type TM homodimer (TM sequence of IL-10Rα): 27 % decrease
TM sequence of IL-10Rβ (domain or fragment)	141 mBu	78 mBu	35 mBu	35 mBu		
B1					152 mBu	BRET50 [4]: 86 mBu
B2					28 mBu	BRET50 [5]: 28 mBu

— PMC10216903, “Implication of the Transmembrane Domain in the Interleukin 10 Receptor Platform Oligomerisation” (Cells, 2023)
